# Experimental data from patent publication US20220315554A1, “COMPOUNDS COMPRISING A […] LIGAND AND USE THEREOF” (priority 2019, published 2022).
# Bridge positions count the residues as written; N and C are the ends. * marks the point of attachment. tMeBn(DOTA-AET) = Cys-Cys bridge (thioethers) carrying DOTA-AET; tMeBn(DOTA-PP) = Cys-Cys bridge (thioethers) carrying DOTA-PP; Hexanoyl = CCCCCC(=O)*
# T1: 5-HT1A (h) (human (printed (h))), P08908
# T1 chain: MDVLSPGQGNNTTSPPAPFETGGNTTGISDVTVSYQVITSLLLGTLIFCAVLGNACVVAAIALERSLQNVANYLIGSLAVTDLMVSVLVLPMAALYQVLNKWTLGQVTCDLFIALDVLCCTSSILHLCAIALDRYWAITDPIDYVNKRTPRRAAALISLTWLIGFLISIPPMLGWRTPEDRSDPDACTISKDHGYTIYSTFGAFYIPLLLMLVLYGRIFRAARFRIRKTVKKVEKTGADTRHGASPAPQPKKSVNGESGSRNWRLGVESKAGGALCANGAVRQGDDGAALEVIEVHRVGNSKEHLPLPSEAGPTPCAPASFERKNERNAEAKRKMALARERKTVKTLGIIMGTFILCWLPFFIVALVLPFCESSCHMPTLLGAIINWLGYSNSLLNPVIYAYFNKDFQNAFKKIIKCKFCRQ
# T2: AR (h) (human (printed (h))), P10275
# T2 chain: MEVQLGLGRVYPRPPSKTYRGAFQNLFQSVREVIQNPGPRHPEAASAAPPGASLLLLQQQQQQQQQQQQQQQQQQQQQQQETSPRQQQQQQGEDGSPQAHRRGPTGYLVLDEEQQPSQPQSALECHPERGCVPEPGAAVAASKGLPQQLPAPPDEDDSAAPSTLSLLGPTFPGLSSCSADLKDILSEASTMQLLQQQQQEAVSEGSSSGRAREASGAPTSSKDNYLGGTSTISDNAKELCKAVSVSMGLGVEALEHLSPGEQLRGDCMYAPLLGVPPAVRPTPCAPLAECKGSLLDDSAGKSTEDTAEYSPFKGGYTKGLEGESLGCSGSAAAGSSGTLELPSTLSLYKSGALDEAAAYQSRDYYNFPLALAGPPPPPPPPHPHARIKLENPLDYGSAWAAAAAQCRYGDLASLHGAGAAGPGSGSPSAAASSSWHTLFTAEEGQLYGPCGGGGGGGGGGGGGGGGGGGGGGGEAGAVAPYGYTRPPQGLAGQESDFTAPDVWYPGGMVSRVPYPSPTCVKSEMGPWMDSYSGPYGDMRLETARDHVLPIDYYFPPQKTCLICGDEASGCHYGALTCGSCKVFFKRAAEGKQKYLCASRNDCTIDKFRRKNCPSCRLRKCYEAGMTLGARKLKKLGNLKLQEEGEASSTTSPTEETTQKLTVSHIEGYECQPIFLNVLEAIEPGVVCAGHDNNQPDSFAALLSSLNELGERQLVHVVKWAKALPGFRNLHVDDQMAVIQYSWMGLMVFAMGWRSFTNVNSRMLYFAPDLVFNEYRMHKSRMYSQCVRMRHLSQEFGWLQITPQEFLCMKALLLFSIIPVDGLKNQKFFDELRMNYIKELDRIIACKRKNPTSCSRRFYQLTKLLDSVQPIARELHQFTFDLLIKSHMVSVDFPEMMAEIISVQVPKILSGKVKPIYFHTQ
# T3: CB1 (h) (human (printed (h))), P21554
# T3 chain: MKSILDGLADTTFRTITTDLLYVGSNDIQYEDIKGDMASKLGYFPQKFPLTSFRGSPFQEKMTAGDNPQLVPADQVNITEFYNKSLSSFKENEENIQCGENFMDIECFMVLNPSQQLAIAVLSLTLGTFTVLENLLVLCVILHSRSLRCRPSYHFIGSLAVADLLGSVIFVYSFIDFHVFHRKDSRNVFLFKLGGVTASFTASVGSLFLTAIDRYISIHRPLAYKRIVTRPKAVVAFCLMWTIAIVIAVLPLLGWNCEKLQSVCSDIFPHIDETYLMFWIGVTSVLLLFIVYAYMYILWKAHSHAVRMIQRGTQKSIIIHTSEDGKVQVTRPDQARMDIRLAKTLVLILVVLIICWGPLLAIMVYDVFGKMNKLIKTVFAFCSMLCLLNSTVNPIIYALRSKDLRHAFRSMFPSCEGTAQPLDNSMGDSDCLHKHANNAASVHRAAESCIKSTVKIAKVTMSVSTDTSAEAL
# T4: alpha 1A (h) (human (printed (h))), P35348
# T4 chain: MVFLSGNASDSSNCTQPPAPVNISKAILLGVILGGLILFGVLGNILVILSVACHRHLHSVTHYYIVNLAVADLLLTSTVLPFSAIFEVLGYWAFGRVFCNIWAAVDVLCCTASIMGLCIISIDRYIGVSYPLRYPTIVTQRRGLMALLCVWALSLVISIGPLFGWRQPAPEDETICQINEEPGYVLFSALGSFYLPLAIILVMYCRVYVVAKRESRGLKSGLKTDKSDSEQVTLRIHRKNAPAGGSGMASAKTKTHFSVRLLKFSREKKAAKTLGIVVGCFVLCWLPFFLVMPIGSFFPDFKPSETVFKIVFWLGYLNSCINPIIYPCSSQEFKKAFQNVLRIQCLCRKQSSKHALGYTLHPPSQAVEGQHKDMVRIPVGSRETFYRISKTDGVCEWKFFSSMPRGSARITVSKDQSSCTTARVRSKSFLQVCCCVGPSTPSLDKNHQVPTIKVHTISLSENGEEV
# Columns and labels:
# Test in all cases: radioligand displacement, 10 uM compound
# Conditions in all cases: remark: other sources report otherwise
# [1] = target: 5-HT transporter (h) (human (printed (h))), P31645
# [2] = target: T1, 5-HT1A (h) (human (printed (h))), P08908
# [3] = target: T2, AR (h) (human (printed (h))), P10275
# [4] = target: T3, CB1 (h) (human (printed (h))), P21554
# [5] = target: H1 (h) (human (printed (h))), P35367
# Chain of H1 (h) (human (printed (h))), P35367 (P35367 whole entry): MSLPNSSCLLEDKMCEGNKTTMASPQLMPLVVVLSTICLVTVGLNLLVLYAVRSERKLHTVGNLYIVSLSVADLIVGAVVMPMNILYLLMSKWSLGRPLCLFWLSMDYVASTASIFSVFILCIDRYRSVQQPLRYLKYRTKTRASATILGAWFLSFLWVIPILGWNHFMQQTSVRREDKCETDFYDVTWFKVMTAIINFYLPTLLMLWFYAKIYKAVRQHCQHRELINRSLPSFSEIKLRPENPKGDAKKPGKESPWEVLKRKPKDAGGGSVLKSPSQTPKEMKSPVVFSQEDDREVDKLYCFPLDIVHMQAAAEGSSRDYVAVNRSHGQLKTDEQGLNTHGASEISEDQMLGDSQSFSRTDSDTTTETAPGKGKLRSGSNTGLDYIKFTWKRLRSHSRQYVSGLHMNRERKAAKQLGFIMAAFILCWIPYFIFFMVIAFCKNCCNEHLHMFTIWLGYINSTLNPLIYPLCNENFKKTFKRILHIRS
# [6] = target: V1a (h) (human (printed (h))), P37288
# [7] = target: T4, alpha 1A (h) (human (printed (h))), …
# [8] = target: beta 1 (h) (human (printed (h))), P08588
# [9] = target: kappa (h) (KOP) (human (printed (h))), P41145
# Chain of kappa (h) (KOP) (human (printed (h))), P41145 (P41145 whole entry): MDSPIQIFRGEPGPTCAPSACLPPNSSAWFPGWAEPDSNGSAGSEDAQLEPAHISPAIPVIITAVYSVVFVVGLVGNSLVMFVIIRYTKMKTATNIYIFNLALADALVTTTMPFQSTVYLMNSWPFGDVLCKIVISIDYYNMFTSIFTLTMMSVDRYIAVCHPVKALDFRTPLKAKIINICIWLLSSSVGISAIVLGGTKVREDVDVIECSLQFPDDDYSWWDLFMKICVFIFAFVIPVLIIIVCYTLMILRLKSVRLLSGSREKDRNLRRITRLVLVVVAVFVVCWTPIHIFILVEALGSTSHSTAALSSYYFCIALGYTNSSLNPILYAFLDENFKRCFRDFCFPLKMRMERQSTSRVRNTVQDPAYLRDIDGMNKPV
% Inhibition of Specific Binding [1],% Inhibition of Specific Binding [2],% Inhibition of Specific Binding [3],% Inhibition of Specific Binding [4],% Inhibition of Specific Binding [5],% Inhibition of Specific Binding [6],% Inhibition of Specific Binding [7],% Inhibition of Specific Binding [8],% Inhibition of Specific Binding [9],Binder
-8%,-5%,-5%,-7%,4%,1%,-12%,-13%,10%,Hexanoyl-CPPTQFC-OH (linker 1-7 via tMeBn(DOTA-AET)) [Hex-[Cys(tMeBn(DOTA-AET))-Pro-Pro-Thr-Gln-Phe-Cys]-OH (3BP-3554)]
-3%,-3%,3%,5%,11%,16%,2%,4%,7%,Hexanoyl-CPPTQFCD-NH2 (linker 1-7 via tMeBn(DOTA-PP)) [Hex-[Cys(tMeBn(DOTA-PP))-Pro-Pro-Thr-Gln-Phe-Cys]-Asp-NH2 (3BP-3407)]
